From US20200095301A1 (published 2020) come the findings set out here.

For test [1], the target named is human IL-13Rα1 ectodomain, biotinylated (human) (UniProt P78552). As to the kind of experiment: SPR; equilibrium. The conditions noted are these: ligand. (In SPR one partner is held on a chip, and binding of the other changes the refractive index at the surface.)
Test [2] has the same target. Kind of test: SPR; kinetic. The conditions noted are these: ligand.
The target in test [3] is T1, human IL-13Rα2, biotinylated (human, UniProt Q14627 27-343, biotinylated (site not stated)).
T1 chain: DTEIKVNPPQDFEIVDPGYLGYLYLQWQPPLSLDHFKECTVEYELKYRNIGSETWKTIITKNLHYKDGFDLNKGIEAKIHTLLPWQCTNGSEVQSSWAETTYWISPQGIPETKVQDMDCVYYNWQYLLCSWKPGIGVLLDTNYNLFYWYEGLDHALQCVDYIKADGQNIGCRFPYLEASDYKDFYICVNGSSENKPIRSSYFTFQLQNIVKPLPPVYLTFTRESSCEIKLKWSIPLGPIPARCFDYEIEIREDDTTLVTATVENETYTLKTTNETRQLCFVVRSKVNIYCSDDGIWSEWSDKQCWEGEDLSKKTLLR
As to the kind of experiment: SPR; kinetic.

Chain of human IL-13Rα1 ectodomain, biotinylated (human) (P78552 other isoform, or with tags, fused parts or gaps): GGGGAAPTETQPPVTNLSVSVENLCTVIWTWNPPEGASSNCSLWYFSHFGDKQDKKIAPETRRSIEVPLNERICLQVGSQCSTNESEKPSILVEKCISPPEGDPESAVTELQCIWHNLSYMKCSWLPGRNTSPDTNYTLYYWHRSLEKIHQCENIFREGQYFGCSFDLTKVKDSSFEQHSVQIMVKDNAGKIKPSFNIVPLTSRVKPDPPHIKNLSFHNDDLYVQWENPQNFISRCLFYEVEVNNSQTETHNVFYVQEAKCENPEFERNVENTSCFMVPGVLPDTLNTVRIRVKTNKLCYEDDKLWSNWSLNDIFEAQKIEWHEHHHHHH

As usually defined, the Kd is a measure of binding affinity in units of concentration. Read a low Kd as tighter binding. “IL-13 superkine D7 [L10A, V18F, R86K, D87K, K89R, L101I, K104R, R108K]” registered a Kd in test [1] of 4.1 µM. That is a single-digit micromolar value.

“IL-13 variant B4 [R11S, V18I, R86K, D87G, T88S, K89M, L101Y, K104R, K105T]” had a Kd in test [2] of 18 nM.

B1: IL-13 superkine D7 [L10A, V18F, R86K, D87K, K89R, L101I, K104R, R108K] (ligand)
chain: PGPVPPSTAARELIEELFNITQNQKAPLCNGSMVWSINLTAGMYCAALESLINVSGCSAIEKTQRMLSGFCPHKVSAGQFSSLHVKKTRIEVAQFVKDLLIHLRKLFKEGQFNHHHHHH
In test [3], B1 yielded a Kd of 3 pM.
